# Substitutions are numbered along the chain they refer to.
# T1: MglB, unlinked wild type (Myxococcus xanthus), Q1DB03
# T1 chain: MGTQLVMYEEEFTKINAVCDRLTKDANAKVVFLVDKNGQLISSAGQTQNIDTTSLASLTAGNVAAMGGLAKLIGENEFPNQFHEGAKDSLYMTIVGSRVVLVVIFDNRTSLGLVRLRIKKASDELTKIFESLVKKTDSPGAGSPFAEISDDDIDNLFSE
# T2: MglA (mutual gliding protein A), unlinked (Myxococcus xanthus) (UniProt Q1DB04)
# T2 sequence: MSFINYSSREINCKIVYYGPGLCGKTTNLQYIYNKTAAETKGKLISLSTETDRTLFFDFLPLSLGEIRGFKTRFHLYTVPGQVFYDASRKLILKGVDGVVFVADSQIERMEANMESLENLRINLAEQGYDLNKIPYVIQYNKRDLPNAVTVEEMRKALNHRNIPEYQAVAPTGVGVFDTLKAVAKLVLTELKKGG
# T3: MglB with C-terminal Strep-tag (MglB-Strep) (Myxococcus xanthus), Q1DB03
# T3 chain: T1 chain
# B1: MglB^ΔN (natural protein, Myxococcus xanthus)
# chain: MYEEEFTKINAVCDRLTKDANAKVVFLVDKNGQLISSAGQTQNIDTTSLASLTAGNVAAMGGLAKLIGENEFPNQFHEGAKDSLYMTIVGSRVVLVVIFDNRTSLGLVRLRIKKASDELTKIFESLVKKTDSPGAGSPFAEISDDDIDNLFSE
# notes: MglB, Myxococcus xanthus, with the N-terminal β-strand (residues 2 to 7) deleted; Dimer by SEC; also called MglB with residues 2 to 7 deleted; source: E. coli BL21AI, purified (as MglB, then Superdex 75 and MonoQ)
# B2: MglB with C-terminal Strep-tag (MglB-Strep) (natural protein)
# chain: T1 chain
# B3: MglB^N37,R98A (natural protein, Myxococcus xanthus)
# chain: T1 chain with N37A, R98A
# notes: MglB, Myxococcus xanthus, Asn-37 and Arg-98 mutated to alanines; also called double mutant of Asn-37 and Arg-98 to alanines; source: E. coli BL21AI, purified (as MglB, then Superdex 75 and MonoQ)
# B4: MglB, unlinked wild type, Q1DB03 1-159 (natural protein)
# chain: T1 chain
# B5: MglB^ΔCt, unlinked (domain or fragment)
# chain: T1 chain
# B6: MglB with C-terminal Strep-tag (MglB-Strep), Q1DB03 1-159 (natural protein)
# chain: T1 chain
# Columns and labels:
# [1] = target: MglA-link-MglB1 with C-terminal hexahistidine tag (mglA-link-mglB-H6) (Myxococcus xanthus) (UniProt Q1DB03)
# [2] = target: MglA-link-MglB^ΔCt with C-terminal hexahistidine tag (mglA-link-mglB^ΔCt-H6) (Myxococcus xanthus) (UniProt Q1DB03)
# [3] = target: MglB^ΔCt with C-terminal Strep-tag (MglB^ΔCt-Strep) (Myxococcus xanthus) (UniProt Q1DB03); assay: SEC-MALS; Superdex 200 Increase 10/300 GL, room temperature (about 25 °C), 50 mM NaCl, 50 mM Tris pH 8.0, 0.4 ml/min; purified linked complexes loaded at approximately 5 mg/ml, 110 μl
# [4] = target: the molecule itself; assay: SEC; purified MglB^WT, MglB^ΔN and MglB^N37,R98A (Fig. S1B)
# [5] = target: T1, MglB, unlinked wild type (Myxococcus …); assay: as above; conditions: remark: other sources report otherwise
# [6] = target: T2, MglA (mutual gliding protein A), unlinked (Myxococcus xanthus)
# [7] = target: T3, MglB with C-terminal Strep-tag …; assay: SEC-MALS; Superdex 200 Increase 10/300 GL, room temperature (about 25 °C), 50 mM NaCl, 50 mM Tris pH 8.0, 0.4 ml/min; purified linked complexes loaded at approximately 5 mg/ml, 110 μl; conditions: remark: other sources report otherwise
molecule,measurement,setting,value
MglB^ΔCt with C-terminal Strep-tag (MglB^ΔCt-Strep) (from UniProt Q1DB03 1-159) (domain or fragment),GTPase activity kobs of the linked complex {AB1B2^ΔCt} (NADH-coupled assay),[1],0.17 min⁻¹
same,GTPase activity kobs of the linked complex {AB^ΔCt} (NADH-coupled assay),[2],0.1 min⁻¹
same,stoichiometry N,[3],2
B1,stoichiometry N,[4],2
B2,"GTPase activity kobs of the linked complex {AB^WT} (NADH-coupled assay, GDP released per minute per μM enzyme)",[1],0.2 min⁻¹
same,GTPase activity kobs of the linked complex {AB1^ΔCtB2} (NADH-coupled assay),[2],0.07 min⁻¹
B3,binding result,[4],binds
B4,stoichiometry N,[5],2
B5,GTPase activity kobs of unlinked AB^ΔCt (NADH-coupled assay),[6],0.08 min⁻¹
B6,stoichiometry N,[7],2

# Source: article PMC11016934, “Mechanism of GTPase activation of a prokaryotic small Ras-like GTPase MglA by an asymmetrically interacting MglB dimer” (The Journal of Biological Chemistry, 2024)
